Results from PMC11364227.

Biological target: SARS-CoV-2 prototype-Beta RBD-dimer PB (two truncated RBDs, 329-537, in tandem) (SARS-CoV-2 (prototype) | SARS-CoV-2 (Beta variant)) (UniProt P0DTC2)
Assay: SPR

Substance | Kd [nM]
S2K146 | 4
S309 | 7.6
CR3022 | 293
SA55 | 6.6
XGv347 | 0.2
C022 | 5.1
S2H97 | 1.6
